Data as given in patent publication US20150344570A1 (published 2015).

T1: FcγRIIb (human, UniProt P31994 43-217)
T1 construct: extracellular domain; also called FcgRIIb; 2b
T1 sequence (looked up): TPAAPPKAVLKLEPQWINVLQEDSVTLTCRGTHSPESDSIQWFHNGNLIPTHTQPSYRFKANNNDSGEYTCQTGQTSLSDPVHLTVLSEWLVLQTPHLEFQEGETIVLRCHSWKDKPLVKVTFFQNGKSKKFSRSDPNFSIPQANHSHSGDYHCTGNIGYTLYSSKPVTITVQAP

T2: FcγRIIa H (human, UniProt P12318 34-217)
T2 construct: extracellular domain; also called FcgRIIa H; FcγRIIa type H
T2 sequence (looked up): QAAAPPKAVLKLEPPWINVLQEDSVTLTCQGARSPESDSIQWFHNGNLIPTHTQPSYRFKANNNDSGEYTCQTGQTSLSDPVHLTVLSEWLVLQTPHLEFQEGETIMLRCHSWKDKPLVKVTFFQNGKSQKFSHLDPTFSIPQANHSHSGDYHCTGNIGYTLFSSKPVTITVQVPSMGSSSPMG

B1: GpH7-A5/GpH7-B3 variant G237_05P/GpL16-k0 (antibody, human IgG1, kappa)
heavy 1: not shown
heavy 2: not shown
light: DIVMTQSPLSLPVTPGEPASISCQASESLVHSNRNTYLHWYLQKPGQSPQLLIYKVSNRFSGVPDRFSGSGSGTDFTLKISRVEAEDVGVYYCSQNTHVPPTFGQGTKVEIERTVAAPSVFIFPPSDEQLKSGTASVVCLLNNFYPREAKVQWKVDNALQSGNSQESVTEQDSKDSTYSLSSTLTLSKADYEKHKVYACEVTHQGLSSPVTKSFNRGEC
notes: Heterodimerized antibody, alteration in one H chain only; also called He Ab G237P
B2: GpH7-A5/GpH7-B3 variant H268_20W/GpL16-k0 (antibody, human IgG1, kappa)
heavy 1: not shown
heavy 2: not shown
light: B1 light
notes: Heterodimerized antibody, alteration in one H chain only; also called He Ab H268W
B3: GpH7-A5/GpH7-B3 variant P271_11K/GpL16-k0 (antibody, human IgG1, kappa)
heavy 1: not shown
heavy 2: not shown
light: B1 light
notes: heterodimerized IgG1, mutation in one H chain; also called He Ab
B4: GpH7-A5/GpH7-B3 variant S298_19Q/GpL16-k0 (antibody, human IgG1, kappa)
heavy 1: not shown
heavy 2: not shown
light: B1 light
notes: as for B3
B5: GpH7-A5/GpH7-B3 variant P271_07I/GpL16-k0 (antibody, human IgG1, kappa)
heavy 1: not shown
heavy 2: not shown
light: B1 light
notes: as for B3
B6: GpH7-A5/GpH7-B3 variant S267_02A/GpL16-k0 (antibody, human IgG1, kappa)
heavy 1: not shown
heavy 2: not shown
light: B1 light
notes: as for B3
B7: GpH7-A5/GpH7-B3 variant S324_19Q/GpL16-k0 (antibody, human IgG1, kappa)
heavy 1: not shown
heavy 2: not shown
light: B1 light
notes: as for B3
B8: GpH7-A5/GpH7-B3 variant P271_04F/GpL16-k0 (antibody, human IgG1, kappa)
heavy 1: not shown
heavy 2: not shown
light: B1 light
notes: as for B3
B9: GpH7-A5/GpH7-B3 variant Q295_14T/GpL16-k0 (antibody, human IgG1, kappa)
heavy 1: not shown
heavy 2: not shown
light: B1 light
notes: as for B3
B10: GpH7-A5/GpH7-B3 variant P271_13S/GpL16-k0 (antibody, human IgG1, kappa)
heavy 1: not shown
heavy 2: not shown
light: B1 light
notes: as for B3
B11: GpH7-A5/GpH7-B3 variant S239_01G/GpL16-k0 (antibody, human IgG1, kappa)
heavy 1: not shown
heavy 2: not shown
light: B1 light
notes: as for B3
B12: GpH7-A5/GpH7-B3 variant S298_16H/GpL16-k0 (antibody, human IgG1, kappa)
heavy 1: not shown
heavy 2: not shown
light: B1 light
notes: as for B3
B13: GpH7-A5/GpH7-B3 variant Q295_05P/GpL16-k0 (antibody, human IgG1, kappa)
heavy 1: not shown
heavy 2: not shown
light: B1 light
notes: as for B3
B14: GpH7-A5/GpH7-B3 variant S337_01G/GpL16-k0 (antibody, human IgG1, kappa)
heavy 1: not shown
heavy 2: not shown
light: B1 light
notes: as for B3
B15: GpH7-A5/GpH7-B3 variant S239_09D/GpL16-k0 (antibody, human IgG1, kappa)
heavy 1: not shown
heavy 2: not shown
light: B1 light
notes: as for B3
B16: GpH7-A5/GpH7-B3 variant H268_05P/GpL16-k0 (antibody, human IgG1, kappa)
heavy 1: not shown
heavy 2: not shown
light: B1 light
notes: Heterodimerized antibody, alteration in one H chain only; also called He Ab H268P
B17: GpH7-A5/GpH7-B3 variant H268_03V/GpL16-k0 (antibody, human IgG1, kappa)
heavy 1: not shown
heavy 2: not shown
light: B1 light
notes: Heterodimerized antibody, alteration in one H chain only; also called He Ab H268V
B18: GpH7-A5/GpH7-B3 variant P271_03V/GpL16-k0 (antibody, human IgG1, kappa)
heavy 1: not shown
heavy 2: not shown
light: B1 light
notes: as for B3
B19: GpH7-A5/GpH7-B3 variant S298_07I/GpL16-k0 (antibody, human IgG1, kappa)
heavy 1: not shown
heavy 2: not shown
light: B1 light
notes: as for B3
B20: GpH7-A5/GpH7-B3 variant Q295_02A/GpL16-k0 (antibody, human IgG1, kappa)
heavy 1: not shown
heavy 2: not shown
light: B1 light
notes: as for B3
B21: GpH7-A5/GpH7-B3 variant Q295_07I/GpL16-k0 (antibody, human IgG1, kappa)
heavy 1: not shown
heavy 2: not shown
light: B1 light
notes: as for B3
B22: GpH7-A5/GpH7-B3 variant S337_02A/GpL16-k0 (antibody, human IgG1, kappa)
heavy 1: not shown
heavy 2: not shown
light: B1 light
notes: as for B3
B23: GpH7-A5/GpH7-B3 variant H268_01G/GpL16-k0 (antibody, human IgG1, kappa)
heavy 1: not shown
heavy 2: not shown
light: B1 light
notes: Heterodimerized antibody, alteration in one H chain only; also called He Ab H268G
B24: GpH7-A5/GpH7-B3 variant S324_14T/GpL16-k0 (antibody, human IgG1, kappa)
heavy 1: not shown
heavy 2: not shown
light: B1 light
notes: as for B3
B25: GpH7-A5/GpH7-B3 variant S324_02A/GpL16-k0 (antibody, human IgG1, kappa)
heavy 1: not shown
heavy 2: not shown
light: B1 light
notes: as for B3
B26: GpH7-A5/GpH7-B3 variant S298_18N/GpL16-k0 (antibody, human IgG1, kappa)
heavy 1: not shown
heavy 2: not shown
light: B1 light
notes: as for B3
B27: GpH7-A5/GpH7-B3 variant S324_08L/GpL16-k0 (antibody, human IgG1, kappa)
heavy 1: not shown
heavy 2: not shown
light: B1 light
notes: as for B3
B28: GpH7-A5/GpH7-B3 variant S267_03V/GpL16-k0 (antibody, human IgG1, kappa)
heavy 1: not shown
heavy 2: not shown
light: B1 light
notes: as for B3
B29: GpH7-A5/GpH7-B3 variant Q295_03V/GpL16-k0 (antibody, human IgG1, kappa)
heavy 1: not shown
heavy 2: not shown
light: B1 light
notes: as for B3
B30: GpH7-A5/GpH7-B3 variant S298_08L/GpL16-k0 (antibody, human IgG1, kappa)
heavy 1: not shown
heavy 2: not shown
light: B1 light
notes: as for B3
B31: GpH7-A5/GpH7-B3 variant K326_03V/GpL16-k0 (antibody, human IgG1, kappa)
heavy 1: not shown
heavy 2: not shown
light: B1 light
notes: Heterodimerized antibody, alteration in one H chain only; also called He Ab K326V
B32: GpH7-A5/GpH7-B3 variant K326_05P/GpL16-k0 (antibody, human IgG1, kappa)
heavy 1: not shown
heavy 2: not shown
light: B1 light
notes: Heterodimerized antibody, alteration in one H chain only; also called He Ab K326P
B33: GpH7-A5/GpH7-B3 variant P271_20W/GpL16-k0 (antibody, human IgG1, kappa)
heavy 1: not shown
heavy 2: not shown
light: B1 light
notes: as for B3
B34: GpH7-A5/GpH7-B3 variant P271_06M/GpL16-k0 (antibody, human IgG1, kappa)
heavy 1: not shown
heavy 2: not shown
light: B1 light
notes: as for B3
B35: GpH7-A5/GpH7-B3 variant S267_01G/GpL16-k0 (antibody, human IgG1, kappa)
heavy 1: not shown
heavy 2: not shown
light: B1 light
notes: as for B3
B36: GpH7-A5/GpH7-B3 variant K326_04F/GpL16-k0 (antibody, human IgG1, kappa)
heavy 1: not shown
heavy 2: not shown
light: B1 light
notes: Heterodimerized antibody, alteration in one H chain only; also called He Ab K326F
B37: GpH7-A5/GpH7-B3 variant P271_12R/GpL16-k0 (antibody, human IgG1, kappa)
heavy 1: not shown
heavy 2: not shown
light: B1 light
notes: as for B3
B38: GpH7-A5/GpH7-B3 variant S298_03V/GpL16-k0 (antibody, human IgG1, kappa)
heavy 1: not shown
heavy 2: not shown
light: B1 light
notes: as for B3
B39: GpH7-A5/GpH7-B3 variant S267_09D/GpL16-k0 (antibody, human IgG1, kappa)
heavy 1: not shown
heavy 2: not shown
light: B1 light
notes: as for B3
B40: GpH7-A5/GpH7-B3 variant Q295_13S/GpL16-k0 (antibody, human IgG1, kappa)
heavy 1: not shown
heavy 2: not shown
light: B1 light
notes: as for B3
B41: GpH7-A5/GpH7-B3 variant S298_14T/GpL16-k0 (antibody, human IgG1, kappa)
heavy 1: not shown
heavy 2: not shown
light: B1 light
notes: as for B3
B42: GpH7-A5/GpH7-B3 variant Q295_18N/GpL16-k0 (antibody, human IgG1, kappa)
heavy 1: not shown
heavy 2: not shown
light: B1 light
notes: as for B3
B43: GpH7-A5/GpH7-B3 variant S324_03V/GpL16-k0 (antibody, human IgG1, kappa)
heavy 1: not shown
heavy 2: not shown
light: B1 light
notes: as for B3
B44: GpH7-A5/GpH7-B3 variant S337_03V/GpL16-k0 (antibody, human IgG1, kappa)
heavy 1: not shown
heavy 2: not shown
light: B1 light
notes: as for B3
B45: GpH7-A5/GpH7-B3 variant Q295_04F/GpL16-k0 (antibody, human IgG1, kappa)
heavy 1: not shown
heavy 2: not shown
light: B1 light
notes: as for B3
B46: GpH7-A5/GpH7-B3 variant S324_20W/GpL16-k0 (antibody, human IgG1, kappa)
heavy 1: not shown
heavy 2: not shown
light: B1 light
notes: as for B3
B47: GpH7-A5/GpH7-B3 variant S298_10E/GpL16-k0 (antibody, human IgG1, kappa)
heavy 1: not shown
heavy 2: not shown
light: B1 light
notes: as for B3
B48: GpH7-A5/GpH7-B3 variant S298_15Y/GpL16-k0 (antibody, human IgG1, kappa)
heavy 1: not shown
heavy 2: not shown
light: B1 light
notes: as for B3

Assays:
[1] = target: T1, FcγRIIb; experiment: SPR (Biacore), antibody captured, FcγR analyte; binding relative to GpH7-A5/GpH7-B3/GpL16-k0 = 100
[2] = target: T2, FcγRIIa H; experiment: as above
[3] = target: T3, FcγRIa (human, UniProt P12314 16-292); experiment: SPR (Biacore), captured antibody, FcγRIa analyte; relative to HeCon Ab GpH7-A5/GpH7-B3/GpL16-k0 = 100
T3 construct: extracellular domain; soluble extracellular domain with C-terminal His tag, expressed in FreeStyle293 cells; also called FcgRI; FcgRIa
T3 sequence (P12314 16-292): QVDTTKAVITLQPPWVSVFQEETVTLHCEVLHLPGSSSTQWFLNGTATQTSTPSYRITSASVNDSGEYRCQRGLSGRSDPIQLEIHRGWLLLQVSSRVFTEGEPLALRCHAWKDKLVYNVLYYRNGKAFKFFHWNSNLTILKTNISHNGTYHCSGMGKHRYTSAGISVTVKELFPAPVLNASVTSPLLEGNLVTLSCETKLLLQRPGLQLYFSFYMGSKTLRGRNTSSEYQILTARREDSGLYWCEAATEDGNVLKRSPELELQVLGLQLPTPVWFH

Binder | He/Con_2b [1] | He/Con_2aH [2] | He/Con_1a [3]
B1 | 24.6 % of control | – | –
B2 | 111 % of control | 95.8 % of control | –
B3 | – | – | 103 % of control
B4 | – | – | 109 % of control
B5 | – | – | 102 % of control
B6 | – | – | 109 % of control
B7 | – | – | 112 % of control
B8 | – | – | 102 % of control
B9 | – | – | 103 % of control
B10 | – | – | 102 % of control
B11 | – | – | 101 % of control
B12 | – | – | 109 % of control
B13 | – | – | 103 % of control
B14 | – | – | 107 % of control
B15 | – | – | 101 % of control
B16 | 116 % of control | 81.8 % of control | –
B17 | 114 % of control | 99.2 % of control | –
B18 | – | – | 102 % of control
B19 | – | – | 107 % of control
B20 | – | – | 104 % of control
B21 | – | – | 103 % of control
B22 | – | – | 106 % of control
B23 | 144 % of control | 99.2 % of control | –
B24 | – | – | 121 % of control

Binder | He/Con_2b [1] | He/Con_2aH [2] | He/Con_1a [3]
B25 | – | – | 103 % of control
B26 | – | – | 108 % of control
B27 | – | – | 103 % of control
B28 | – | – | 106 % of control
B29 | – | – | 104 % of control
B30 | – | – | 107 % of control
B31 | 175 % of control | 97 % of control | –
B32 | 126 % of control | 98.8 % of control | –
B33 | – | – | 103 % of control
B34 | – | – | 102 % of control
B35 | – | – | 103 % of control
B36 | 155 % of control | 97 % of control | –
B37 | – | – | 102 % of control
B38 | – | – | 110 % of control
B39 | – | – | 110 % of control
B40 | – | – | 102 % of control
B41 | – | – | 107 % of control
B42 | – | – | 102 % of control
B43 | – | – | 104 % of control
B44 | – | – | 107 % of control
B45 | – | – | 102 % of control
B46 | – | – | 114 % of control
B47 | – | – | 108 % of control
B48 | – | – | 107 % of control
